Experimental findings from US20100015650 are described below.

The target in the data set is T1, BRB1 tyrosine kinase substrate peptide.
T1 chain: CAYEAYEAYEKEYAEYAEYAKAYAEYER

B1: IGF1R (protein)
chain: RKRNNSRLGNGVLYASVNPEYFSAADVYVPDEWEVAREKITMSRELGQGSFGMVYEGVAKGVVKDEPETRVAIKTVNEAASMRERIEFLNEASVMKEFNCHHVVRLLGVVSQGQPTLVIMELMTRGDLKSYLRSLRPEMENNPVLAPPSLSKMIQMAGEIADGMAYLNANKFVHRDLAARNCMVAEDFTVKIGDFGMTRDIYETDYYRKGGKGLLPVRWMSPESLKDGVFTTYSDVWSFGVVLWEIATLAEQPYQGLSNEQVLRFVMEGGLLDKPDNCPDMLFELMRMCWQYNPKMRPSFLEIISSIKEEMEPGFREVSFYYSEENKLPEPEELDLEPENMESVPLDPSASSSSLPLPDRHSGHKAENGPGPGVLVLRASFDERQPYAHMNGGRKNERALPLPQSSTC
In the case of B1, the Signal to Noise ratio with BRB1 Peptide (TR-FRET kinase assay; kinase 0.25 nM) is 25.1.

B2: FGFR2 (protein)
chain: RMKNTTKKPDFSSQPAVHKLTKRIPLRRQVTVSAESSSSMNSNTPLVRITTRLSSTADTPMLAGVSEYELPEDPKWEFPRDKLTLGKPLGEGCFGQVVMAEAVGIDKDKPKEAVTVAVKMLKDDATEKDLSDLVSEMEMMKMIGKHKNIINLLGACTQDGPLYVIVEYASKGNLREYLRARRPPGMEYSYDINRVPEEQMTFKDLVSCTYQLARGMEYLASQKCIHRDLAARNVLVTENNVMKIADFGLARDINNIDYYKKTTNGRLPVKWMAPEALFDRVYTHQSDVWSFGVLMWEIFTLGGSPYPGIPVEELFKLLKEGHRMDKPANCTNELYMMMRDCWHAVPSQRPTFKQLVEDLDRILTLTTNEEYLDLSQPLEQYSPSYPDTRSSCSSGDDSVFSPDPMPYEPCLPQYPHINGSVKT
Take B2: the Signal to Noise ratio with BRB1 Peptide (TR-FRET kinase assay; kinase 0.25 nM) turned out to be 27.1.

B3: FMS (CSFR) (protein)
chain: KYKQKPKYQVRWKIIESYEGNSYTFIDPTQLPYNEKWEFPRNNLQFGKTLGAGAFGKVVEATAFGLGKEDAVLKVAVKMLKSTAHADEKEALMSELKIMSHLGQHENIVNLLGACTHGGPVLVITEYCCYGDLLNFLRRKAEAMLGPSLSPGQDPEGGVDYKNIHLEKKYVRRDSGFSSQGVDTYVEMRPVSTSSNDSFSEQDLDKEDGRPLELRDLLHFSSQVAQGMAFLASKNCIHRDVAARNVLLTNGHVAKIGDFGLARDIMNDSNYIVKGNARLPVKWMAPESIFDCVYTVQSDVWSYGILLWEIFSLGLNPYPGILVNSKFYKLVKDGYQMAQPAFAPKNIYSIMQACWALEPTHRPTFQQICSFLQEQAQEDRRERDYTNLPSSSRSGGSGSSSSELEEESSSEHLTCCEQGDIAQPLLQPNNYQFC
Regarding B3, the Signal to Noise ratio with BRB1 Peptide (TR-FRET kinase assay; kinase 0.25 nM) is 3.

B4: IRR (protein)
chain: YGKKRNRTLYASVNPEYFSASDMYVPDEWEVPREQISIIRELGQGSFGMVYEGLARGLEAGEESTPVALKTVNELASPRECIEFLKEASVMKAFKCHHVVRLLGVVSQGQPTLVIMELMTRGDLKSHLRSLRPEAENNPGLPQPALGEMIQMAGEIADGMAYLAANKFVHRDLAARNCMVSQDFTVKIGDFGMTRDVYETDYYRKGGKGLLPVRWMAPESLKDGIFTTHSDVWSFGVVLWEIVTLAEQPYQGLSNEQVLKFVMDGGVLEELEGCPLQLQELMSRCWQPNPRLRPSFTHILDSIQEELRPSFRLLSFYYSPECRGARGSLPTTDAEPDSSPTPRDCSPQNGGPGH
B4: the Signal to Noise ratio with BRB1 Peptide (TR-FRET kinase assay; kinase 0.5 nM) came to 19.2.

B5: FLT3 (protein)
chain: HKYKKQFRYESQLQMVQVTGSSDNEYFYVDFREYEYDLKWEFPRENLEFGKVLGSGAFGKVMNATAYGISKTGVSIQVAVKMLKEKADSSEREALMSELKMMTQLGSHENIVNLLGACTLSGPIYLIFEYCCYGDLLNYLRSKREKFHRTWTEIFKEHNFSFYPTFQSHPNSSMPGSREVQIHPDSDQISGLHGNSFHSEDEIEYENQKRLEEEEDLNVLTFEDLLCFAYQVAKGMEFLEFKSCVHRDLAARNVLVTHGKVVKICDFGLARDIMSDSNYVVRGNARLPVKWMAPESLFEGIYTIKSDVWSYGILLWEIFSLGVNPYPGIPVDANFYKLIQNGFKMDQPFYATEEIYIIMQSCWAFDSRKRPSFPNLTSFLGCQLADAEEAMYQNVDGRVSECPHTYQNRRPFSREMDLGLLSPQAQVEDS
Turning to B5, the Signal to Noise ratio with BRB1 Peptide (TR-FRET kinase assay; kinase 0.1 nM) is 25.9.

B6: FGFR4 (protein)
chain: RGQALHGRHPRPPATVQKLSRFPLARQFSLESGSSGKSSSSLVRGVRLSSSGPALLAGLVSLDLPLDPLWEFPRDRLVLGKPLGEGCFGQVVRAEAFGMDPARPDQASTVAVKMLKDNASDKDLADLVSEMEVMKLIGRHKNIINLLGVCTQEGPLYVIVECAAKGNLREFLRARRPPGPDLSPDGPRSSEGPLSFPVLVSCAYQVARGMQYLESRKCIHRDLAARNVLVTEDNVMKIADFGLARGVHHIDYYKKTSNGRLPVKWMAPEALFDRVYTHQSDVWSFGILLWEIFTLGGSPYPGIPVEELFSLLREGHRMDRPPHCPPELYGLMRECWHAAPSQRPTFKQLVEALDKVLLAVSEEYLDLRLTFGPYSPSGGDASSTCSSSDSVFSHDPLPLGSSSFPFGSGVQT
Regarding B6, the Signal to Noise Ratio with BRB1 Peptide (TR-FRET kinase assay; kinase 3 nM) was 17.7.

B7: FLT4 (protein)
chain: MRRPAHADIKTGYLSIIMDPGEVPLEEQCEYLSYDASQWEFPRERLHLGRVLGYGAFGKVVEASAFGIHKGSSCDTVAVKMLKEGATASEHRALMSELKILIHIGNHLNVVNLLGACTKPQGPLMVIVEFCKYGNLSNFLRAKRDAFSPCAEKSPEQRGRFRAMVELARLDRRRPGSSDRVLFARFSKTEGGARRASPDQEAEDLWLSPLTMEDLVCYSFQVARGMEFLASRKCIHRDLAARNILLSESDVVKICDFGLARDIYKDPDYVRKGSARLPLKWMAPESIFDKVYTTQSDVWSFGVLLWEIFSLGASPYPGVQINEEFCQRLRDGTRMRAPELATPAIRRIMLNCWSGDPKARPAFSELVEILGDLLQGRGLQEEEEVCMAPRSSQSSEEGSFSQVSTMALHIAQADAEDSPPSLQRHSLAARYYNWVSFPGCLARGAETRGSSRMKTFEEFPMTPTTYKGSVDNQTDSGMVLASEEFEQIESRHRQESGFS
Regarding B7, the Signal to Noise ratio with BRB1 Peptide (TR-FRET kinase assay; kinase 0.25 nM) turned out to be 20.

B8: KIT (protein)
chain: TYKYLQKPMYEVQWKVVEEINGNNYVYIDPTQLPYDHKWEFPRNRLSFGKTLGAGAFGKVVEATAYGLIKSDAAMTVAVKMLKPSAHLTEREALMSELKVLSYLGNHMNIVNLLGACTIGGPTLVITEYCCYGDLLNFLRRKRDSFICSKQEDHAEAALYKNLLHSKESSCSDSTNEYMDMKPGVSYVVPTKADKRRSVRIGSYIERDVTPAIMEDDELALDLEDLLSFSYQVAKGMAFLASKNCIHRDLAARNILLTHGRITKICDFGLARDIKNDSNYVVKGNARLPVKWMAPESIFNCVYTFESDVWSYGIFLWELFSLGSSPYPGMPVDSKFYKMIKEGFRMLSPEHAPAEMYDIMKTCWDADPLKRPTFKQIVQLIEKQISESTNHIYSNLANCSPNRQKPVVDHSVRINSVGSTASSSQPLLVHDDV
Consider B8, for which the Signal to Noise ratio with BRB1 Peptide (TR-FRET kinase assay; kinase 2 nM) is 1.5.

B9: FGFR3 (protein)
chain: RLRSPPKKGLGSPTVHKISRFPLKRQVSLESNASMSSNTPLVRIARLSSGEGPTLANVSELELPADPKWELSRARLTLGKPLGEGCFGQVVMAEAIGIDKDRAAKPVTVAVKMLKDDATDKDLSDLVSEMEMMKMIGKHKNIINLLGACTQGGPLYVLVEYAAKGNLREFLRARRPPGLDYSFDTCKPPEEQLTFKDLVSCAYQVARGMEYLASQKCIHRDLAARNVLVTEDNVMKIADFGLARDVHNLDYYKKTTNGRLPVKWMAPEALFDRVYTHQSDVWSFGVLLWEIFTLGGSPYPGIPVEELFKLLKEGHRMDKPANCTHDLYMIMRECWHAAPSQRPTFKQLVEDLDRVLTVTSTDEYLDLSAPFEQYSPGGQDTPSSSSSGDDSVFAHDLLPPAPPSSGGSRT
In the case of B9, the Signal to Noise ratio with BRB1 Peptide (TR-FRET kinase assay; kinase 0.25 nM) was 24.4.

B10: EphB4 (protein)
chain: LCLRKQSNGREAEYSDKHGQYLIGHGTKVYIDPFTYEDPNEAVREFAKEIDVSYVKIEEVIGAGEFGEVCRGRLKAPGKKESCVAIKTLKGGYTERQRREFLSEASIMGQFEHPNIIRLEGVVTNSMPVMILTEFMENGALDSFLRLNDGQFTVIQLVGMLRGIASGMRYLAEMSYVHRDLAARNILVNSNLVCKVSDFGLSRFLEENSSDPTYTSSLGGKIPIRWTAPEAIAFRKFTSASDAWSYGIVMWEVMSFGERPYWDMSNQDVINAIEQDYRLPPPPDCPTSLHQLMLDCWQKDRNARPRFPQVVSALDKMIRNPASLKIVARENGGASHPLLDQRQPHYSAFGSVGEWLRAIKMGRYEESFAAAGFGSFELVSQISAEDLLRIGVTLAGHQKKILASVQHMKSQAKPGTPGGTGGPAPQY
In the case of B10, the Signal to Noise ratio with BRB1 Peptide (TR-FRET kinase assay; kinase 0.5 nM) was found to be 29.8.

B11: HER4 (ERBB4) (protein)
chain: RRKSIKKKRALRRFLETELVEPLTPSGTAPNQAQLRILKETELKRVKVLGSGAFGTVYKGIWVPEGETVKIPVAIKILNETTGPKANVEFMDEALIMASMDHPHLVRLLGVCLSPTIQLVTQLMPHGCLLEYVHEHKDNIGSQLLLNWCVQIAKGMMYLEERRLVHRDLAARNVLVKSPNHVKITDFGLARLLEGDEKEYNADGGKMPIKWMALECIHYRKFTHQSDVWSYGVTIWELMTFGGKPYDGIPTREIPDLLEKGERLPQPPICTIDVYMVMVKCWMIDADSRPKFKELAAEFSRMARDPQRYLVIQGDDRMKLPSPNDSKFFQNLLDEEDLEDMMDAEEYLVPQAFNIPPPIYTSRARIDSNRSEIGHSPPPAYTPMSGNQFVYRDGGFAAEQGVSVPYRAPTSTIPEAPVAQGATAEIFDDSCCNGTLRKPVAPHVQEDSSTQRYSADPTVFAPERSPRGELDEEGYMTPMRDKPKQEYLNPVEENPFVSRRKNGDLQALDNPEYHNASNGPPKAEDEYVNEPLYLNTFANTLGKAEYLKNNILSMPEKAKKAFDNPDYWNHSLPPRSTLQHPDYLQEYSTKYFYKQNGRIRPIVAENPEYLSEFSLKPGTVLPPPPYRHRNTVV
On to B11, for which the Signal to Noise ratio with BRB1 Peptide (TR-FRET kinase assay; kinase 0.1 nM) was 3.1.

B12: FLT1 (protein)
chain: RKMKRSSSEIKTDYLSIIMDPDEVPLDEQCERLPYDASKWEFARERLKLGKSLGRGAFGKVVQASAFGIKKSPTCRTVAVKMLKEGATASEYKALMTELKILTHIGHHLNVVNLLGACTKQGGPLMVIVEYCKYGNLSNYLKSKRDLFFLNKDAALHMEPKKEKMEPGLEQGKKPRLDSVTSSESFASSGFQEDKSLSDVEEEEDSDGFYKEPITMEDLISYSFQVARGMEFLSSRKCIHRDLAARNILLSENNVVKICDFGLARDIYKNPDYVRKGDTRLPLKWMAPESIFDKIYSTKSDVWSYGVLLWEIFSLGGSPYPGVQMDEDFCSRLREGMRMRAPEYSTPEIYQIMLDCWHRDPKERPRFAELVEKLGDLLQANVQQDGKDYIPINAILTGNSGFTYSTPAFSEDFFKESISAPKFNSGSSDDVRYVNAFKFMSLERIKTFEELLPNATSMFDDYQGDSSTLLASPMLKRFTWTDSKPKASLKIDLRVTSKSKESGLSDVSRPSFCHSSCGHVSEGKRRFTYDHAELERKIACCSPPPDYNSVVLYSTPPI
In the case of B12, the Signal to Noise ratio with BRB1 Peptide (TR-FRET kinase assay; kinase 0.25 nM) is 4.1.
